# Reference: patent US12281340B2, “Method of producing N-acyl-amino group-containing compound” (AJINOMOTO CO., INC., priority 2018, dated 2025)
# B1: AtGH3-10: GH3-10 from Arabidopsis thaliana, His-tagged (protein, listed as Arabidopsis thaliana)
# chain: METVEAGHDDVIGWFEHVSENACKVQSETLRRILELNSGVEYLRKWLGTVDVEKMDDYTLETLFTSLVPIVSHADLDPYIQRIADGETSPLLTQEPITVLSLSSGTTEGRQKYVPFTRHSAQTTLQIFRLSAAYRSRFYPIREGGRILEFIYAGKEFKTLGGLTVGTATTHYYASEEFKTKQETTKSFTCSPQEVISGGDFGQCTYCHLLLGLHYSSQVEFVASAFSYTIVQAFSFFEEIWREICADIKEGNLSSRITLPKMRKAVLALIRPNPSLASHIEEICLELETNLGWFGLISKLWPNAKFISSIMTGSMLPYLNKLRHYAGGLPLVSADYGSTESWIGVNVDPHLPPEDVSFAVIPTFSYFEFIPLYRRQNQSDICIDGDFVEDKPVPLSQVKLGQEYELVLTTFTGLYRYRLGDVVEVTSFHKGTPKLSFIYRRKLILTINIDKNTEKDLQRVVDKASQLLSRSTRAEVVDFTSHADVIARPGHYVIYWEIRGEADDKALEECCREMDTAFVDYGYVVSRRMNSIGPLELRVVERGTFGKVAERCVGKCGGLNQFKTPRCTTNSVMLDILNDSTIKRFRSSAYD
# modifications: His-tag
# notes: GH3-10 from Arabidopsis thaliana, His-tagged
# How the values were obtained:
# Assay type in all cases: biochemical
# Design in all cases: key: +: Detected; −: Not detected
# [1] = Synthesis of N-caprinoylamino acid using purified acylamino acid synthetase, UPLC-MS detection; settings: +ATP
# Procedure: 2.0 mL of a reaction solution containing 50 mM Tris-HCl, 5 mM amino acid, 5 mM sodium caprate, 10 mM ATP, 10 mM MgCl2, 1 mM DTT, 50 μg of the purified enzyme, pH 8.0 was incubated at 25° C. for 24 hours. After completion of the reaction, 0.8 mL of a reaction stop solution (1% (v/v) phosphoric acid, 75% (v/v) methanol) was added, and the mixture was filtrated through a filter followed by being subjected to the UPLC-MS analysis to detect a signal of a molecular weight corresponding to an N-caprinoyl amino acid.
# A UPLC-MS analysis condition is as follows.
# (§1) Apparatus: ACQUITY UPLC (Waters)
# • Column: ACQUITY UPLC BEH C18 1.7 2.1×100 mm Column (Waters) • Mobile phase A: 0.1% formic acid • Mobile phase B: acetonitrile Gradient
# • Flow rate: 0.6 mL/min • Injection amount: 2 μL • Column temperature: 40° C. • Ionization method: ESI-negative
# As a result of the UPLC-MS analysis, the signal of the molecular weight corresponding to the N-caprinoyl amino acid was confirmed in the reaction solution combining the enzyme and the amino acid shown in Table 3 below.
# [2] = Synthesis of N-acylamino acids from various fatty acids using purified acylamino acid synthetase, UPLC-MS detection
# Procedure: 0.1 mL of a reaction solution containing 50 mM Tris-HCl, 5 mM amino acid, 5 mM sodium fatty acid (3 mM of sodium palmitate or sodium stearate), 10 mM ATP, 10 mM MgCl2, 1 mM DTT, 200 μg/mL of the purified enzyme, pH 8.0 was shaken at 25° C. for 24 hours. When sodium palmitate or sodium stearate was used, methanol at a final concentration of 10% (v/v) was contained in the reaction solution. As the amino acid, L-Asp was used in AtGH3-6, OsGH3-8, AtGH3-5, AtGH3-12, L-Ile was used in AtJAR1, L-Ala was used in AtGH3-10, SsGH3, L-Glu was used in AtGH3-17, Gly was used in CfHP, L-Lys was used in PsIAAL, and L-Cys was used in PaHP. After completion of the reaction, 0.4 mL of the reaction stop solution (1% (v/v) phosphoric acid, 75% (v/v) methanol) was added, and the mixture was filtrated through the filter followed by being subjected to the UPLC-MS analysis to detect a signal of a molecular weight corresponding to the N-acylamino acid.
# The condition for the UPLC-MS analysis is as follows.
# as §1
# Column: ACQUITY UPLC BEH C18 1.7 μm 2.1×100 mm Column (Waters), mobile phase A: 0.1% formic acid; mobile phase B: acetonitrile
# • Flow rate: 0.6 mL/minute • Injection amount: 2 μL • Column temperature: 40° C. • Ionization method: ESI-negative
# As a result of the UPLC-MS analysis, the signal of the molecular weight corresponding to the appropriate N-acylamino acid was confirmed in the reaction solution containing the enzyme in combination with sodium fatty acid shown in Table 7 below.
# [3] = Synthesis of N-caprinoyl-amino acid derivative, N-caprinoyl-D-amino acid and N-caprinoyl-peptide using purified acylamino acid synthetase, UPLC-MS detection; settings: +ATP
# Procedure: 0.2 mL of a reaction solution containing 50 mM Tris-HCl, 5 mM amino acid derivative or D-amino acid or peptide, 5 mM sodium caprate, 10 mM ATP, 10 mM MgCl2, 1 mM DTT, 50 μg/mL of the purified enzyme, pH 8.0 was incubated at 25° C. for 24 hours. After completion of the reaction, 0.8 mL of the reaction stop solution (1% (v/v) phosphoric acid, 75% (v/v) methanol) was added, and the mixture was filtrated through the filter followed by being subjected to the UPLC-MS analysis to detect a signal of a molecular weight corresponding to an N-caprinoyl-amino acid derivative, an N-caprinoyl-amino acid or an N-caprinoyl-peptide. A condition for the UPLC-MS analysis is as described in Example 2.
# As a result of the UPLC-MS analysis, the signal of the molecular weight corresponding to the N-caprinoyl-amino acid derivative, or N-caprinoyl-amino acid, or N-caprinoyl-peptide was confirmed in the reaction solution containing the enzyme in combination with the amino acid derivative or the D-amino acid or the peptide shown in Table 4 below.
molecule,measurement,setting,value
B1,signal of molecular weight corresponding to N-caprinoyl amino acid,[1]; substrates GABA and sodium caprate,+
same,signal of molecular weight corresponding to N-caprinoyl amino acid,[1]; substrates Gly and sodium caprate,+
same,signal of molecular weight corresponding to N-caprinoyl amino acid,[1]; substrates L-Ala and sodium caprate,+
same,signal of molecular weight corresponding to N-caprinoyl amino acid,[1]; substrates L-Arg and sodium caprate,+
same,signal of molecular weight corresponding to N-caprinoyl amino acid,[1]; substrates L-Asn and sodium caprate,+
same,signal of molecular weight corresponding to N-caprinoyl amino acid,[1]; substrates L-Asp and sodium caprate,+
same,signal of molecular weight corresponding to N-caprinoyl amino acid,[1]; substrates L-Cys and sodium caprate,−
same,signal of molecular weight corresponding to N-caprinoyl amino acid,[1]; substrates L-Gln and sodium caprate,+
same,signal of molecular weight corresponding to N-caprinoyl amino acid,[1]; substrates L-Glu and sodium caprate,−
same,signal of molecular weight corresponding to N-caprinoyl amino acid,[1]; substrates L-His and sodium caprate,+
same,signal of molecular weight corresponding to N-caprinoyl amino acid,[1]; substrates L-Ile and sodium caprate,+
same,signal of molecular weight corresponding to N-caprinoyl amino acid,[1]; substrates L-Leu and sodium caprate,+
same,signal of molecular weight corresponding to N-caprinoyl amino acid,[1]; substrates L-Lys and sodium caprate,+
same,signal of molecular weight corresponding to N-caprinoyl amino acid,[1]; substrates L-Met and sodium caprate,+
same,signal of molecular weight corresponding to N-caprinoyl amino acid,[1]; substrates L-Phe and sodium caprate,+
same,signal of molecular weight corresponding to N-caprinoyl amino acid,[1]; substrates L-Pro and sodium caprate,+
same,signal of molecular weight corresponding to N-caprinoyl amino acid,[1]; substrates L-Ser and sodium caprate,+
same,signal of molecular weight corresponding to N-caprinoyl amino acid,[1]; substrates L-Thr and sodium caprate,+
same,signal of molecular weight corresponding to N-caprinoyl amino acid,[1]; substrates L-Trp and sodium caprate,+
same,signal of molecular weight corresponding to N-caprinoyl amino acid,[1]; substrates L-Tyr and sodium caprate,+
same,signal of molecular weight corresponding to N-caprinoyl amino acid,[1]; substrates L-Val and sodium caprate,+
same,signal of molecular weight corresponding to N-caprinoyl amino acid,[1]; substrates β-Ala and sodium caprate,+
same,signal of molecular weight corresponding to N-acylamino acid,[2]; substrates L-Ala and Capric acid,+
same,signal of molecular weight corresponding to N-acylamino acid,[2]; substrates L-Ala and Caproic acid,+
same,signal of molecular weight corresponding to N-acylamino acid,[2]; substrates L-Ala and Caprylic acid,+
same,signal of molecular weight corresponding to N-acylamino acid,[2]; substrates L-Ala and Lauric acid,+
same,signal of molecular weight corresponding to N-acylamino acid,[2]; substrates L-Ala and Linoleic acid,−
same,signal of molecular weight corresponding to N-acylamino acid,[2]; substrates L-Ala and Palmitic acid,−
same,signal of molecular weight corresponding to N-acylamino acid,[2]; substrates L-Ala and myristic acid,+
same,signal of molecular weight corresponding to N-acylamino acid,[2]; substrates L-Lys and Capric acid,+
same,signal of molecular weight corresponding to N-acylamino acid,[2]; substrates L-Lys and Caproic acid,+
same,signal of molecular weight corresponding to N-acylamino acid,[2]; substrates L-Lys and Caprylic acid,+
same,signal of molecular weight corresponding to N-acylamino acid,[2]; substrates L-Lys and Lauric acid,+
same,signal of molecular weight corresponding to N-acylamino acid,[2]; substrates L-Lys and Linoleic acid,−
same,signal of molecular weight corresponding to N-acylamino acid,[2]; substrates L-Lys and Palmitic acid,+
same,signal of molecular weight corresponding to N-acylamino acid,[2]; substrates L-Lys and myristic acid,+
same,signal of molecular weight corresponding to N-caprinoyl compound,[3]; substrates Carnosine and sodium caprate,−
same,signal of molecular weight corresponding to N-caprinoyl compound,[3]; substrates D-Ala and sodium caprate,+
same,signal of molecular weight corresponding to N-caprinoyl compound,[3]; substrates D-Asp and sodium caprate,+
same,signal of molecular weight corresponding to N-caprinoyl compound,[3]; substrates D-Cys and sodium caprate,+
same,signal of molecular weight corresponding to N-caprinoyl compound,[3]; substrates D-Glu and sodium caprate,+
same,signal of molecular weight corresponding to N-caprinoyl compound,[3]; substrates D-Ile and sodium caprate,−
same,signal of molecular weight corresponding to N-caprinoyl compound,[3]; substrates D-Lys and sodium caprate,−
same,signal of molecular weight corresponding to N-caprinoyl compound,[3]; substrates L-Asp-L-Phe and sodium caprate,−
same,signal of molecular weight corresponding to N-caprinoyl compound,[3]; substrates L-Gly-L-Gly and sodium caprate,+
same,signal of molecular weight corresponding to N-caprinoyl compound,[3]; substrates Sarcosine and sodium caprate,−
same,signal of molecular weight corresponding to N-caprinoyl compound,[3]; substrates Taurine and sodium caprate,+
